Biological target: T1, Tie1-EpoR chimeric receptor (UniProt P14753+P35590)
T1 construct: PCR amplified extracellular part of human Tie1 (bp 37-2316 of X60975); expressed in transfected cells
T1 sequence (P35590+P14753 with tags, fused parts or gaps): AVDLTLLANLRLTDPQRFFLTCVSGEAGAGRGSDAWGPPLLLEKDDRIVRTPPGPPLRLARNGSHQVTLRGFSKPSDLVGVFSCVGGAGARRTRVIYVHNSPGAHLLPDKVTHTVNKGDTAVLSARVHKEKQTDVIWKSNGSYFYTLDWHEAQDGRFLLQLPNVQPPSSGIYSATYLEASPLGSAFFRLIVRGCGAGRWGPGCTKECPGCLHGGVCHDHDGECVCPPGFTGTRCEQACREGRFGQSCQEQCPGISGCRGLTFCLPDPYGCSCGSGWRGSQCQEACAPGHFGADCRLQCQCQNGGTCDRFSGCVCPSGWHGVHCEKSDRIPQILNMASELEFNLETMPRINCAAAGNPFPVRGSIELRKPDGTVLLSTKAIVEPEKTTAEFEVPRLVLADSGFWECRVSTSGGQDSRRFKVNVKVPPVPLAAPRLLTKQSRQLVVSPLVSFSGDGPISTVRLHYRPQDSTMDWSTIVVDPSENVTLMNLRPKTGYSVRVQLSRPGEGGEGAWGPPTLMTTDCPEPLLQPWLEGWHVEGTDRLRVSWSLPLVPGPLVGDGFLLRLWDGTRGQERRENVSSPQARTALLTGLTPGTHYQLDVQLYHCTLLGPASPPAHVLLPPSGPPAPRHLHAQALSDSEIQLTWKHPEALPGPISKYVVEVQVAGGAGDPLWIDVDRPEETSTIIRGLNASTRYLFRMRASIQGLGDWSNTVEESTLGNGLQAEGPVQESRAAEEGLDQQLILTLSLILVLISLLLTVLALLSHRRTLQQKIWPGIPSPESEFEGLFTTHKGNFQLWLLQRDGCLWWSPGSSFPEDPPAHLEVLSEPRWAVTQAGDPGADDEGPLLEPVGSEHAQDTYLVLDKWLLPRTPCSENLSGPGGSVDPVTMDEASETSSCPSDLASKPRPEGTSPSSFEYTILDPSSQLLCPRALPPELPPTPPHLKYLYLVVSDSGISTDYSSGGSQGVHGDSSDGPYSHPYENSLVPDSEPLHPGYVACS
Test: BaF3 bioassay (Tie1/EpoR chimeric BaF3 cell assay)
Format: cell-based, human
Conditions: for survival (viability) of Tie1-EpoR BaF3 cells: no IL-3, MTT
Excerpt: BaF3 bioassay. To generate Tie1-EpoR expressing BaF3 cells for the bioassay, BaF3 pre-B cells were stably transfected with a nucleic acid that expresses chimeric receptor containing the extracellular domain of human Tie1 fused with the transmembrane and cytoplasmic domains of the mouse erythropoietin receptor. The nucleic acid used was a Tie1-EpoR chimeric cDNA in a pEF-BOS expression vector. The nucleic acid encoding the chimeric receptor was constructed by cloning the PCR amplified extracellular part of human Tie1 (bp 37-2316 of X60975) as EcoRI-BglII fragment into mEpoR-pcDNA vector. The cDNA encoding for the chimeric receptor consisting of the extracellular part of Tie1 fused with the transmembrane and intracellular domains of EpoR was subcloned into the pEF-BOS expression vector. Vector was linearized and co-transfected into BaF3 cells with pcDNA3.1(+) Zeo vector (Invitrogen). Stable cell pools were generated by selection with 250 μg/ml Zeocin. The expression of Tie1/EpoR fusion protein in several clones was analyzed by Western blotting with an antibody against EpoR.
To perform the assays, BaF3 cells expressing the Tie1-EpoR chimera were split in 96-well microtiter plates at 50 000 cells/well in the presence of the indicated concentrations of anti-Tie1 antibodies. The E3 antibody used in this study was the germ-lined E3 antibody (DX-2220). As controls, Zeocin resistant pools not expressing the Tie1-EpoR were used. After 48 h, the viability of the cells was determined by adding MTT (3-(4,5-dimethylthiazol-2-yl)-2,5-diphenyl tetrazolium bromide (Sigma), 0.5 mg/ml), followed by further 2 h of culture, addition of an equal volume of cell lysis solution (10% SDS, 10 mM HCl) and incubation overnight at 37° C. Absorbance was measured at 540 nm.
Stimulation and inhibition of Tie1 in Tie1-EpoR transfected BaF3 cells and human primary endothelial cells. Although no ligand for Tie1 has been identified, we used the following efficient screening method for Tie1-binding proteins. Interleukin-3 dependent pre-B-lymphocyte (BaF3) cells were transfected with a construct that expresses a Tie1-EpoR fusion protein. Since BaF3 cells are IL-3 dependent, they die unless IL-3 is provided. However, Tie-EpoR receptor expressing BaF3 cells can survive and proliferate if the medium contains a Tie1-binding protein, either a natural ligand or an artificial mimetic. Cell survival can be quantitated, e.g., by colorimetric MTT-assay, which measures mitochondrial activity.
To determine if any of the other monoclonal antibodies tested inhibit the survival effect of E3 IgG in Tie1-EpoR BaF3 assay, antibodies were studied in combination with E3 IgG. A concentration of 100 ng/ml of E3 IgG together with 100 (1:1) or 500 (1:5) ng/ml of the other antibodies were used and the viability of Tie1-EpoR cells was measured.

B1: E3: human anti-Tie1 antibody from phage Fab library, reformatted as IgG; HC variable SEQ ID NO:114, LC variable SEQ ID NO:116 (antibody, V domains shown)
VH: EVQLLESGGGLVQPGGSLRLSCAASGFTFSMYGMVWVRQAPGKGLEWVSVISPSGGNTGYADSVKGRFTISRDNSKNTLYLQVNSLRAEDTAVYYCARAPRGYSYGYYYWGQGTLVTVSSASTKGPSVFPLAPSSKSTSGG
VL: DIQMTQSPLSLSASVGDRVTITCRASQGIGHYLAWYQQKPGKVPKLLIYTASTLQSGVPSRFSGSGSGTDFTLTINSLQPEDVATYYCQQFNSYPHTFGQGTRLDIK
modifications: IgG constant regions; Synthetically generated peptide
- viability of EpoR BaF3 cells used as a control (cells not expressing Tie1-EpoR): not affected
- survival (viability) of Tie1-EpoR BaF3 cells: functions as a Tie1 activating antibody in the BaF3 cell bioassay
- survival (viability) of Tie1-EpoR BaF3 cells (listed as E3 IgG): able to promote survival of Tie1-EpoR cells
- concentration giving almost maximal viability in Tie1-EpoR cell survival assays (viability dose dependent): 50 ng/mL

B2: parental E3 Fab: soluble Fab fragment of the parental E3 anti-Tie1 antibody (antibody, V domains shown)
VH: B1 VH
VL: B1 VL
- survival (viability) of Tie1-EpoR BaF3 cells: no effect on the viability of Tie1-EpoR cells
